Laboratory results reported in the supplement of paper PMC10567573.

B1: ZNF263 (parent)
chain: QRTHTGEKPYKCPECGEIFAHSSN

Variants of: B1
Assay: protein stability index of a GFP-peptide fusion (GPS, HEK-293T) (PSI 1-6); higher = more stable
Conditions: c terminus: a fixed tail appended
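Also: lentivirally expressed fusions sorted by FACS into six bins by GFP to DsRed ratio, PSI derived from sequencing read proportions per bin multiplied by bin number.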

Protein stability index, by site and new letter:
N24: F 2.74; E 3.15; V 2.61; H 3.49; P 2.61; S 3.16; K 3.99; C 5.06; L 2.95; A 3.74; D 3.88; Q 3.65; W 2.85; Y 2.96; T 3.54; M 2.75; G 3.04; R 2.39; I 2.65
F19: S 3.84; H 4.82; W 2.47; G 4.28; C 4.9; R 3.75; D 4.87; Y 3.7; P 3.75; T 4.1; Q 3.83; A 4.38; N 4.37; I 3.37; L 3.16; E 4.25; V 3.46; M 3.56; K 4.08
A20: K 3.25; I 3.46; N 3.55; F 3.18; T 3.11; P 3.53; E 3.76; W 3.07; L 2.63; C 3.75; Q 3.59; S 3.83; R 2.93; Y 3.49; V 3.04; M 3.25; H 3.45; G 3.16; D 3.67
S23: T 3.14; A 3.61; M 2.81; C 5.55; Q 3.31; G 3.23; Y 2.73; P 2.72; K 3.79; I 3.24; E 4.67; R 2.77; D 3.5; H 4.71; F 2.81; V 2.71; W 2.36; L 2.75; N 3.34
I18: M 3.73; D 3.52; W 2.41; Q 3.91; G 4.05; K 3.83; F 2.97; N 3.79; L 3.18; H 3.29; A 3.48; E 3.99; V 3.56; Y 3.48; S 2.53; R 3; P 3.43; C 3.87; T 3.9
C15: S 4.29; R 4.29; T 4.63; Y 3.68; W 3.88; V 4.42
G16: L 3.22; P 4.06; S 3.14; N 3.09; Y 3.18; K 3.27; D 3.9; A 3.54; H 3.31; F 2.92; C 2.84; W 2.64; R 3; Q 3.23; M 3.45; V 3.61; T 3.43; I 2.67; E 4
S22: D 3.64; P 2.88; T 2.92; Q 2.81; V 2.91; G 2.92; H 3.87; Y 2.71; W 3.31; F 2.8; A 2.88; R 2.38; L 2.39; C 4.15; K 3.16; I 2.52; N 3.38; E 3.62; M 2.49
E17: D 3.13; W 3.01; L 2.6; Y 4.23; S 4.02; H 4.49; N 3.83; Q 3.86; A 4.67; M 3.27; C 4.6; T 4.77; R 3.38; G 2.53; I 2.85; P 3.72; V 2.6; F 4.53; K 3.98
H21: V 2.35; C 3.5; I 2.05; S 3.43; G 3.22; M 3.19; P 3.5; Y 2.86; A 2.95
